Assay results: article PMC8486843, “SPOP mutation induces replication over-firing by impairing Geminin ubiquitination and triggers replication catastrophe upon ATR inhibition” (Nature Communications, 2021)

What was measured:
SPOP MATH (D140G mutant) = target: T1, SPOP MATH (D140G mutant) (human, UniProt O43791 28-166, D140G); assay: crystal structure; 1.1 mM SPOP MATH D140G with 5.5 mM Geminin peptide; sitting drop, 22 °C; 3.4 Å; settings: both partners purified
T1 construct: SPOP, human, MATH domain, residues 28-166, D140G; Purified 'using the same protocol' as the 15N-labeled MATH domain 28-166; also called SPOP-MATH domain (D140G mutant)
T1 sequence (O43791 28-166 D140G): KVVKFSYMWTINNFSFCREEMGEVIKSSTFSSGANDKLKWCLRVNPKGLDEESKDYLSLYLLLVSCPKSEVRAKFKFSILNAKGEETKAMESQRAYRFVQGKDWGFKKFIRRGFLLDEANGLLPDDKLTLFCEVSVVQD

[1] = target: T2, 15N-labeled SPOP MATH domain (amino acids 28-166) (human, UniProt O43791 28-166, 15N-labeled); assay: NMR titration; 1H-15N HSQC of 0.2 mM 15N-labeled SPOP MATH titrated with up to 3-fold molar excess of unlabeled peptide; 298 K; phosphate buffer, 50 mM NaCl, 5 mM DTT, pH 6.0; settings: both partners purified
T2 construct: SPOP, human, MATH domain, residues 28-166; Hexahistidine tag cleaved with PreScission protease
T2 sequence (O43791 28-166): as the sequence (O43791 28-166 D140G) above, with G113D counted along it

- binding result (SPOP MATH (D140G mutant)): binds
- binding result [1]: binds
B1: Geminin WT SBC-containing peptide (amino acids 195-209) (peptide)
peptide: AEGTVSSSTDAKPCI
notes: Geminin, human, residues 195-209; also called Geminin peptide; Geminin wild-type SBC peptide; source: synthetic peptide
